Test results taken from the supplement of paper PMC12636428.

System: Saccharomyces cerevisiae
Experiment: transcriptional activation domain activity (GFP:mCherry ratio, weighted mean of sorted bins, harmonized to initial dataset scale) (arbitrary fluorescence ratio units); higher = stronger transcriptional activation
Conditions: beta-estradiol 1 µM; induction time 4 h
Method in brief: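 In diploid yeast carrying a GFP reporter, barcoded protein tiles fused to an estradiol-inducible synthetic transcription factor were integrated at the URA3 locus. Cultures diluted 1:5 into SC with 1 uM beta-estradiol were kept at 30 °C for 4 hours, then sorted by GFP:mCherry ratio into 8 bins before barcode sequencing. Tiles with under 50 reads were excluded. The activation activity reported here is the read-weighted mean of bin median fluorescence, averaged across barcodes and linearly rescaled to the initial dataset.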

| Sequence | transcriptional activation domain activity |
| --- | --- |
| NDFEKLEFFNKYAKVNTNNDVNENNDLWNSYLQSMDDTTGKNSGNYQQVDNDD | 35700 |
| NDGNESNEDYLGNEKFYLNEILPDEESKLRWKRVFENSENDHDNEKNFLTDWE | 39900 |
| NDLFAWPWGNPIDLDVAIALQETSIGCYNKRTTVFYANSCNTLLSLLVNKFLL | 33300 |
| NDREDDGEDEEEDNGGGGRQQRRKKGSAQRAGKLKPATESDEDEDKPEEEADD | 29200 |
| NDTKKNMSTSNLFPFSFSNTDLTALFTHPEGPNCTNTNNGNVDVCNRASTDAT | 51400 |
| NEEEEEASDHEAEEPKPKKKRGRLAKEVDEEPEAPAPKKARGRPRKAVVKEED | 24400 |
| NEEKGGKDAASRESAVHVYGTLGSRIGRGPRSPSVLSRSFHDIHDCLACVLVV | 56900 |
| NEENIRREQDAADEIAQKLRDDIRSRTGCDVSVGIGSNILQAKVALRKGKPAG | 35200 |
| NEEQTINLINYVLTCSNTVIRNTVFRNKVLNLLVSMILALKTPDYFIIFKIVV | 74300 |
| NEGCKIITVFNGIFGIVYSFAPMCYFCLCIRVFFFALYKRHWYYHALLSLFWL | 70700 |
| NEITIQDLNFLQFSSIPKLWENKTLEPGEEYHHSNGTNTDNNETTGADDTDDN | 24500 |
| NELAVLVDGLNRVLLTHKDDIGIISHVMLAYMIAATRFKRLFVSGGGYMLFMP | 45800 |
| NESGPGAADEDAEEDDEESDEDGAGRKRKKPKVEPKPKPERKAPAPAPADGEK | < 6570 |
| NFDWWAKYNCESLRDAVIGFLTRDCLDSRVGYFRSVVRWIGCRLYFGLLIIFF | 72700 |
| NFFLKDNAPVLQEYLAVFRHLLSFHDPELSSHLDTIGFMPDLYAIPWFLTLFT | 16300 |
| NFFSCLSFLFLFIFLFIFLLFHFPYLFSFQFCLLPIFSHFSIDHQKPYPFPSF | 37700 |
| NFGLMSGLYLYVCILGDSWCPSIDLIFNWMSYAYLWNVYIFLLEIIPVTLMVL | 72100 |
| NFIIQGNSMISTPSGRNDLPDTSPMSSIQTASPPSQLLTDQGFADLDNFMSSL | 74500 |
| NFLLNVSVVTRWFLFIVPVLGLLWIPGILSVTSFPNATVWSVRLLWWSIWLTV | 63900 |
| NFMNNEITASKIDDGNNSKPLSPGWTDQTAYNAFGITTGMFNTTTMDDVYNYL | 120000 |
| NGEDAAPAAEPAGTSTADAVGGTTALPAAYRLKAFISHKGPSVHSGHYVVHIR | 52700 |

| Sequence | transcriptional activation domain activity |
| --- | --- |
| NGELPHENGGRETKVKFEGTAAPKESRIGQMRQHLLLLAESQHRFIRHCGTHG | 29600 |
| NGFCYSAITGGSIVLLLPGWYVFFYSLELQSRSMLCGSIRLGWAIIYAFFLGF | 58900 |
| NGFLLQVVRWNTRPHKEVVQLLTKYFTGAKHQRLLSENIGLIAEWTDRICQLG | 58900 |
| NGGCDYVFSMYVLGAGLWLFIFFLPPIIFSIVCLCYLALIWAVSWVLLWCLVF | 49600 |
| NGGGEQPKGGRGGKSEGGAGNDQGRTNNRGRGDRRGGRGGRDNRGGRGGGSRD | < 6570 |
| NGGLSELKERLDEGRASYAYVKVTYSNDKESTREKFILVIWIGSSCKVMRKAK | 42900 |
| NGHGTHCSGTVAGKKYGVAKKANIKAVKVLRSNGSGTMSDVVKGVEFAAEQHS | 15600 |
| NGHGTHCSGTVAGKKYGVAKKANVYAVKVLRSNGSGTMSDVVKGVEEAVKMHN | 37500 |
| NGHIYPLSLNLFCFFSPMHAILYCFSISWDDYLSLAVLHSGLTIQMVLLVWHF | 50000 |
| NGIFILHHKWVIPTPFASHAFNPFDGFLQSLPYHLYVFMLPMHKWLYLGMFVF | 71400 |
| NGLENAASVITILDKSSNGTFINGEKIGKGQQRLLKDGNEVSFGVCVRSTENN | 24500 |
| NGLLRDVHVVFQDSSFCARLTEQIRRRLRMISSNWRETCCMEMLITLSLRLFH | 45100 |
| NGNMIVNFFYKNIICIGCLWWFQIYCGWSSQYVFEYTYLLFWNVFWSLCPVIA | 38800 |
| NGPGTCVVLVLITYIRRMLGLRYSQVIYVESFARVKKLSLSGKLLKPFVDKFV | 54600 |
| NGPQGQQQQGQRAGQRGQGAGAGEAGQQNGQQGQQAGQRGRGTQAGAAGQQNG | 20600 |
| NGPRRNNNTPNNSPLNPGENGTSRPPRQRNPRNRPPRPRTQDNAPEPSEPASG | 19800 |
| NGQRFVQLLCNECGTVLELSVLLASVYLSLNMGDLVRLQPGCLYESQKRQWGP | 16300 |
| NGTPETHGESIDSKRPRACEACRGLKVKCEPDPTNPDGPCKRCTKANRNCVVT | 25800 |
| NHCKVFFLSFLFFVIYNYLLFILFFYILLLYCYPKPLFPLLSSSPPSFPPQFI | 50300 |
| NHWVFGAFSECFIPGVFLSLHPLTFFLDWTIGFVSDVYTFDAHDPSILELLIF | 47000 |
| NIAQNMNQFRRQQVVYSPDTRKYSLLIREGRVGYPGVACMEIESTDPSLVVDK | 35000 |

| Sequence | transcriptional activation domain activity |
| --- | --- |
| NIDPAAIDDKWLSEFINNSDPKSTFKINFNHFNDIGFIYSPPSSRSSIPNKSP | 101000 |
| NIFMLVFWSLALIYWSMFVIIPSIFNYFSPYHYSRWKVVLVNVGTFVWNLATC | 61300 |
| NIFVLHWLPSLSIASLFHTSSSSSPLLAQFFALFRSFFLSIFLFSIVYILLLF | 72200 |
| NIHLVNMAQVVVIFFHRLLYGIIPLFEITTCAFFPVLVSLWHLAYILFYVVMF | 69100 |
| NIIALFLVTNQLTTCSVLPLCMGLFKVFDGFVSEGAVLFGSIFAFFSVLVHGY | 61300 |
| NIKTFLYTCITHIYINFILCLCACITHYQVYYHYYVNIFTFIFVWLCSFFLFL | 45200 |
| NILFHKLFYAYENVLVIISLIYKKKPLGRLQNTRKCSSINVLCNYILEYGRKY | 42100 |
| NILKLPSMVDGSQHCDISKFIVAAAHKIVTPDVSPRGWVLLKLLRSYIELDMY | 29100 |
| NILRPSLGCILFILIRYVSIIVMVVSNYGVLATSFTVEVCNRYYLVAPVFKVL | 46800 |
| NILVRELQWCILCIRYTALGSLDHIRRLMTEIPAHHGLVRFLQRWVENWLEEQ | 37400 |
| NIPIESSWHLFTNYVGLDIKQIVLLGKSLHYFNPGFLLHVNLFNWLWPKIVQL | 63300 |
| NIQSFDAIYFAALQVIIVSSANGWSPLMYQMMDSEFFVSCVFFIICIVVLNFW | 61500 |
| NISTSVYVLLVCFHPLFLLLLLLLLLLLLLYRFVFAFFFISFFFFFLLLLLLL | 25000 |
| NITKILVMKFFTIDFTFTIMYITGLLITFLYYLVGYFQMNVKLLGSDRAYFAF | 35700 |
| NITKVAERGERLDSLQDKTDNLAVSAQGFRRGANRVRKVSSVVPFIQHSAHKL | 22000 |
| NKDGNGDGGEGKDKDEENRSGNRDGKRERGRKEDRERVAGSSGGGAKGLKRKR | 42600 |
| NKEKMAAFGSFVTEDQEKMEVSFNIFNEITIQDLNFLQFSSIPKLWENKTLEP | 79600 |
| NKHVFLILIRSTLCNNWLIATIWVVEIRFCLDLLQTAFPLIFFRFLTWLFFFQ | 79900 |
| NKKRETRKGESTKSNDEEEEEEEDDDDEKKQGQKKQSNGQSKKSNGSSKKEED | 48700 |
